B1: M12.19 (designed binder)
chain: VSDVPRDLEVVAATPTGLLISWRNNQYTPRHYGITYGETGGKSPVQEFTVPELNPTATISRLKPGVDYTITVYAVTQNGTPRVIYGPISINYRT
B2: T14.21 (designed binder)
chain: VSDVPRDLEVVAATPTSRLISWRPGRTYSRYYRITYGETGGNSPVQEFTVPPWANTATISGLKPGVDYTITAYAVTYTHSTPMQDEPISINYRT
B3: T14.22 (designed binder)
chain: VSDVPRDLEVVAATPSSRLISWRPGRTYSRYYRITYGETGGNSPVQEFTVPPWANTATISGLKPGVDYTIAVYAVTFPTGYPLTEMPISINYRT
B4: M12.09 (designed binder)
chain: B3 chain with S16T, T27A, Y32F, T79P, G80R, T94A
B5: M12.08 (designed binder)
chain: VSDVPRDLEVVAATPTSLLNVPIIRYYRITYGETGGNSPVQEFTVPAPKAIATTSGLKPGVDYTITVYGVTSHRNHFHVETPISINYQA
notes: BC loop cell holds only II
B6: M12.24 (designed binder)
chain: VSDVPRDLEVVAATPTSRLISWNRSGLQSGYYRITYGETGGNSPVQEFTVPPWASIATISGLKPGVDYTITVYAVTPNVGRLDTRYPISIDCRT
B7: M12.04 (designed binder)
chain: VSDVPGDLEVVAATPTSLLIGWSMTPNWPRYYRIAYGETGGDSPVQEFTVPPWASIAIIGGLKPGVDYTITVYAVTHRDTPISINYRT
notes: FG loop cell holds only HRDT
B8: T10.15 (designed binder)
chain: VSDVPRDLEVVAATPTSLLISWHTERSFPRYYRITYGETGGNSPVQEFTVPPWGSIATISGLKPGVDYTITVYAVTEHYRDTGTGHPIPINYRT
B9: T14.20 (designed binder)
chain: VSDVPRDLEVVAATPTSRLISWRNIYPIARYYRITYGETGGNSPVQEFTVPPWASIATISGLKPGADYTITVYAVTDKSDTYKYDDPISINYRT
B10: M12.16 (designed binder)
chain: B9 chain with N24P, I25G, Y26R, P27T, I28Y, A29S, T39A, A66V, D80G, K83R
B11: T14.02 (designed binder)
chain: VSDVPRDLEVVVATPTSQLISWMTPHNHVRYYGITYGETGGNSPVQESTVPTGNATATISGLKPGVDYTITVYAVTPHHGHFDLEPPISINYRT
B12: M12.12 (designed binder)
chain: VSDVPSDLEVVAATPTSLLISWEQSPTYGRYYRITYGETGGNSPVQEFTVPGSKSTATISGRKPGADYTITVYAVTIEKDRIPLFGPISISYRT
B13: M12.14 (designed binder)
chain: VSDVPRDLKVVAATPTSRLISWTHDNVPARYYRITYGETGGNSPVQELTVPPWASIATISGLKPGVDYTITVYAVTLYTGNHRPEHPISINYRT
B14: M12.22 (designed binder)
chain: VSDVPRDLRVVAATPTSRLISWRPASNPARYYRITYGETGGNSPVQEFTVPPWASVATIGGLKPGVDYTVTVYAVTAQTGHRLHDKPISINYRT

Numbering of substitutions follows the chain as printed.

This assay deals with T1, tumor necrosis factor-α (TNF-α) (human, UniProt P01375 77-233, biotinylated with NHS-LC-LC-Biotin in the Kd and fluorescence assays; coupled to Epoxy-Activated Sepharose 6B in the column assays).
T1 construct: Bought from Pepro Tech; also called biotin-TNF-α; biotinylated TNF-α
T1 sequence (P01375 77-233 limits assumed): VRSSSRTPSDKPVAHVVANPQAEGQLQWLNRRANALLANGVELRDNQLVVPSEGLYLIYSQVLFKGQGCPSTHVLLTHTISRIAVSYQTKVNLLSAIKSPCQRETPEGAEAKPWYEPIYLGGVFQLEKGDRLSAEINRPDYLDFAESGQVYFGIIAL
The experiment in a line: 35S free protein + biotin-TNF-α, capture membrane, equilibrium fit. How it is done: Subsequently, each sample was loaded on a pre-soaked, SAM2R Biotin Capture Membrane (Promega, Madison, Wis.) using a 96 well, Easy-Titer™ ELIFA system (Pierce). Under vacuum, each spot was washed with 200 μL of HBS pH 7.4, 1% BSA, 0.05% Triton; next the entire membrane was rinsed in the buffer and air-dried. The membrane was exposed with a Storage Phosphor Screen (Molecular Dynamics, Sunnyvale, Calif.) overnight, and the intensities of the resulting individual spots were quantified using a STORM 860 phosphoimager with the ImageQuaNT densitometry program (Molecular Dynamics). The Kd of the binding was determined by fitting the equilibrium equation to the resulting binding curve (KaleidaGraph, Synergy Software); the error of the experiment was estimated from 2-4 independent experiments.
With B1, the Kd amounted to 0.6 nM.

For B2, the Kd was found to be 7 nM.

B3: the Kd was 0.4 nM.

Consider B4, for which the Kd was 0.4 nM.

With B5, the Kd was found to be 0.6 nM.

For the molecule B6, the Kd came to 1.3 nM.

In the case of B7, the Kd is 0.02 nM.

Take B8: the Kd was 4 nM.

B9: the equilibrium dissociation constant (Kd) came out at 0.11 nM.

B10: the Kd stood at 0.3 nM.

Take B11: the equilibrium dissociation constant (Kd) came out at 0.5 nM.

For B12, the dissociation constant Kd stood at 0.2 nM.

For the molecule B13, the dissociation constant (Kd) is 1.7 nM.

In the case of B14, the Kd is 0.7 nM.

These data come from patent US20050038229A1 (published 2005).
